The assay has as its target recombinant extracellular region of human calsyntenin-1 (residues 29-859) (human) (UniProt O94985). In words: SPR. (SPR reads the build-up and loss of mass on a sensor chip optically.)
Chain of UniProt O94985 (O94985 29-859): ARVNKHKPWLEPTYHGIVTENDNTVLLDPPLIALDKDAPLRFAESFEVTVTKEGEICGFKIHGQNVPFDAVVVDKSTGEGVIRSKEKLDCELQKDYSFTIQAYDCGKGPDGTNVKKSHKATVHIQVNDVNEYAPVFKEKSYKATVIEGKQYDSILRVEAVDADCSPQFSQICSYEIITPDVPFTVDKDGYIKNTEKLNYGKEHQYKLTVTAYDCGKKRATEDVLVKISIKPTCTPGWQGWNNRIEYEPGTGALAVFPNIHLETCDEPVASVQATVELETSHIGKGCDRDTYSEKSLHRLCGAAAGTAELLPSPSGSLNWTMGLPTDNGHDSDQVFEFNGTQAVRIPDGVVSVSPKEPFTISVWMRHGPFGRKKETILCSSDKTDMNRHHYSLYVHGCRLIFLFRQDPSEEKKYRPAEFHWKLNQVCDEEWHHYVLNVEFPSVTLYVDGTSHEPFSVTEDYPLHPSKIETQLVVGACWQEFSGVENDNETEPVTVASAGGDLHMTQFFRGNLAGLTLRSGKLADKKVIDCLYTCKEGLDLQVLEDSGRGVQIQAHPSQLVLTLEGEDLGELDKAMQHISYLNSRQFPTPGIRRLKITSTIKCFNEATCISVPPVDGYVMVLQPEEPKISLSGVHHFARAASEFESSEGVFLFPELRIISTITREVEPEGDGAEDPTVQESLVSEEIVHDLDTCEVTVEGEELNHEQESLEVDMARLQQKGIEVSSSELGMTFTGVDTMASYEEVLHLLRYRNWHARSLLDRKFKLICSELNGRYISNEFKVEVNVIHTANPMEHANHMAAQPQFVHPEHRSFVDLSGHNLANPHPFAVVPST

By Kd is commonly meant the free concentration of one partner at which half of the binding sites on the other are occupied at equilibrium, for simple one-to-one binding. Turning to “fibrillin-1 fragment PF1 (from UniProt P35555 45-2731) (domain or fragment)”, the equilibrium dissociation constant (Kd) is 240 nM.

The record behind these values is PMC2816023.
